Laboratory results taken from publication PMC9119546, “MDM2 E3 ligase activity is essential for p53 regulation and cell cycle integrity” (PLoS Genetics, 2022).

Tests used:
[1] = molecular target: T1, HA-HDM2 (human, recombinant, wild type) (human, UniProt Q00987 1-491); test: pull-down; 500 ng FLAG-MDM4 with 500 ng HA-HDM2 or HA-HDM2L468A in NP40 buffer (20 mM Tris-HCl pH 8.0, 150 mM NaCl, 0.5% NP40); anti-FLAG M2 beads, 1 hour at room temperature; eluted with 3xFLAG peptide; blot for HA; settings: both partners purified
T1 construct: human MDM2 (HDM2); also called HA-HDM2 (WT); HA-MDM2 (human); source: insect cell expression, purified as described previously [13]; not shown: HA, N-terminal, kept

[2] = molecular target: T2, HA-HDM2L468A (human, recombinant) (human, UniProt Q00987 1-491, L468A); test: as above; settings: both partners purified
T2 construct: human MDM2 (HDM2) with L468A; also called HA-HDM2LA; mutant HDM2 (HA-HDM2L468A); source: insect cell expression, purified as described previously [13]; not shown: HA, N-terminal, kept
T2 sequence (Q00987 whole entry L468A): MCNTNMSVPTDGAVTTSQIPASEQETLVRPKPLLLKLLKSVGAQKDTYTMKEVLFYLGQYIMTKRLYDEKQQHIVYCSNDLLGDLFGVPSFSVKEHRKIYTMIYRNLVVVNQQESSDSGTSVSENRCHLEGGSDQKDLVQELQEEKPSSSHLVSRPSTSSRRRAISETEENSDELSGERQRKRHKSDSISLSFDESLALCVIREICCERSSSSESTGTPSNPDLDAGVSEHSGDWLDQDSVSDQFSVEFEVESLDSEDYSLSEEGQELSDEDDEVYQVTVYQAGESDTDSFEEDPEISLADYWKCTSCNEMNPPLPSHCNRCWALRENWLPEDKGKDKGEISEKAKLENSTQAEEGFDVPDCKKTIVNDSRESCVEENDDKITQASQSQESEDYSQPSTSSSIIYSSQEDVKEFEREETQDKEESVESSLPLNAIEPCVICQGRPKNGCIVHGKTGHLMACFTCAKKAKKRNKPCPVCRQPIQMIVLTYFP

T1 sequence (Q00987 whole entry): as the sequence (Q00987 whole entry L468A) above, with A468L counted along it

B1: human recombinant FLAG-MDM4 (natural protein, UniProt O15151 1-490, looked up)
chain: MTSFSTSAQCSTSDSACRISPGQINQVRPKLPLLKILHAAGAQGEMFTVKEVMHYLGQYIMVKQLYDQQEQHMVYCGGDLLGELLGRQSFSVKDPSPLYDMLRKNLVTLATATTDAAQTLALAQDHSMDIPSQDQLKQSAEESSTSRKRTTEDDIPTLPTSEHKCIHSREDEDLIENLAQDETSRLDLGFEEWDVAGLPWWFLGNLRSNYTPRSNGSTDLQTNQDVGTAIVSDTTDDLWFLNESVSEQLGVGIKVEAADTEQTSEEVGKVSDKKVIEVGKNDDLEDSKSLSDDTDVEVTSEDEWQCTECKKFNSPSKRYCFRCWALRKDWYSDCSKLTHSLSTSDITAIPEKENEGNDVPDCRRTISAPVVRPKDAYIKKENSKLFDPCNSVEFLDLAHSSESQETISSMGEQLDNLSEQRTDTENMEDCQNLLKPCSLCEKRPRDGNIIHGRTGHLVTCFHCARRLKKAGASCPICKKEIQLVIKVFIA
notes: human MDM4 (HDM4); also called FLAG-M4; HDM4; source: insect cell expression, purified as described previously [13]; not shown: FLAG, N-terminal, kept
[1]
  binding result: binds
[2]
  binding result: binds
